Residue numbers refer to the chain shown, from its start.

The values that follow come from PMC9950733, “Screening and epitope characterization of diagnostic nanobody against total and activated Bacteroides fragilis toxin” (Frontiers in Immunology, 2023).

Assay [1] addresses T1, recombinant Bacteroides fragilis toxin 1 (BFT1), full length without signal peptide (Bacteroides fragilis (enterotoxigenic), …).
T1 construct: B. fragilis toxin subtype 1 (BFT1, fragilysin), zinc-dependent metallopeptidase of enterotoxigenic Bacteroides fragilis; prodomain plus catalytic domain, without the signal peptide; also called B. fragilis toxin; source: E. coli Origami-2 (DE3), purified (Ni-NTA, SEC on Superdex 75)
T1 chain: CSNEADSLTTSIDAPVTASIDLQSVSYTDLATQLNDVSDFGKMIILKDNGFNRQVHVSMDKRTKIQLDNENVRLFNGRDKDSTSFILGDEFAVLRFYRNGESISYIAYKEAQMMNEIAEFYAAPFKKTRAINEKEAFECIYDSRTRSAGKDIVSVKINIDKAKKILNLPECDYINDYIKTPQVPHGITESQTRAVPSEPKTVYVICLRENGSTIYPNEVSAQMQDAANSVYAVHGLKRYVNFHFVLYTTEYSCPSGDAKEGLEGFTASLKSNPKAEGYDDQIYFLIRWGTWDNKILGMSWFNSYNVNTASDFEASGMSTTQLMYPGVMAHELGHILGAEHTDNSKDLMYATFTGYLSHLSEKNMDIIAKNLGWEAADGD
The experiment in a line: ITC; Microcal ITC 200, 25°C; 20 mM Tris pH 8.0, 150 mM NaCl, 5% glycerol; nanobody (20 μM) injected into BFT solution (200 μM); one binding site mode. Conditions: both partners purified. For orientation: Isothermal titration calorimetry measures the heat released or taken up as one component is titrated into another.

For assay [2], the target named is T1, recombinant Bacteroides fragilis toxin …. Described as above. Conditions: both partners purified.
For assay [3] the target is unchanged.

B1: Nb3.27 (VHH)
VHH: QVQLQESGGGLVQAGGSLRLSCTYSGQTFSAWAMGWFRQAPGKERETVATINWNGERTQYADAVKGRFTISRDNAKDTVYLEMNSLKPEDTAVYYCASMMGTYYSGSPKNWGQGTQVTVSS
notes: from round 3 of bio-panning; CDR1 Gly26-Ala33, CDR2 Ile51-Thr58, CDR3 Ala97-Asn110; source: E. coli WK6 periplasm, purified (Ni-NTA, SEC on Superdex 75)
As usually defined, the Kd is the constant that tells how readily two partners part at equilibrium. In general, stoichiometry N refers to a count of units in the complex or per binding partner. B1: in assay [1], the Kd stood at 0.828 nM and the dH is -9.47 kcal/mol. Further, the “stoichiometry N” value in assay [2] stood at 1.

B2: Nb3.74 (VHH)
VHH: QVQLQESGGGFVQTGGSLRLSCERSGTTFDSFAMGWFRQAPGKERESVGTINWSGDRTYYADSVKGRFTISRDNAKNTVYLQMKKLKPEDTAVYYCAQIRGTYLDGSPGSWGQGTQVTVSS
Regarding B2, the binding result in assay [3] is reported as “binds”.

B3: Nb2.40 (VHH)
VHH: QVQLQESGGGLVQAGGSLRLSCAYFGRTFSAWAMGWFRQAPGKERESVATINWSGERTSYADSVKGRFTISRDNAKNTVYLQMNSLKPEDTAVYYCAAMEGTYYSGKPGTWGQGTQVTVSS
notes: from round 2 of bio-panning; source: E. coli WK6 periplasm, purified (Ni-NTA, SEC on Superdex 75)
Turning to B3, in assay [1], the Kd came out at 8.72 nM and the dH was -13.5 kcal/mol. The “stoichiometry N” value in assay [2] was determined as 1.

B4: Nb2.1 (VHH)
VHH: QVQLQESGGGLVQPEGSLRLSCVASGEFTLDYYAIGWFRQAPGKEREELSCISRTGANTNYADSVKGRFTVSRDNAKNTVYLQMNSLKPEDTANYYCAATLGVNNDCSGYVSPDVYDYWGHGTQVTVSS
Consider B4, for which the binding result in assay [3] is “binds”.

B5: Nb2.13 (VHH)
VHH: QVQLQESGGGLVQPGGSLTLSCVGSGFSLEYYAVGWFRQAPGKEREAVACISSWDGLTYLSDSVKGRFTVSRDNVKNTAYLQMNSLKPEDSAVYYCARDRARCRYYSTPNEYDEWGHGTQVTVSS
B5: in assay [3], the binding result was “binds”.

B6: Nb2.82 (VHH)
VHH: QVQLQESGGGLVQPGGSLRLSCAASGFTFSRYTMTWVRQAPGKGLEWVSNINSDGGRTYYADSVKGRFTISRDNTKNTLYLQMNSLKPEDTAVYYCAIPKRTYVPPSQFDDRGQGTQVTVSS
notes: from round 2 of bio-panning; CDR1 Gly26-Thr33, CDR2 Ile51-Thr58, CDR3 Ala97-Asp111; source: E. coli WK6 periplasm, purified (Ni-NTA, SEC on Superdex 75)
For B6, in assay [1], the Kd came to 11.5 nM and the dH was -17.9 kcal/mol. In addition, the “stoichiometry N” value in assay [2] stood at 1.

B7: Nb2.55 (VHH)
VHH: QVQLQESGGGLVQAGGSLRLSCVRSGHTFDAFAMGWFRQAPGKERESVATINWSGDRTYYADSAKGRFTISRDNAKNTVYLQMNSLKPEDTAVYYCAQMDGTYYSGTPSYWGQGTQVTVSS
notes: as for B3
With B7, in assay [1], the Kd came out at 10.6 nM and the dH is -10 kcal/mol. In addition, in assay [2], the “stoichiometry N” value was determined as 1.

B8: Nb3.43 (VHH)
VHH: B7 VHH with V23A, H27R, D30S, A31S, S47F, R57K, Y59S, A64V, T107S, S109G
notes: from round 3 of bio-panning; source: E. coli WK6 periplasm, purified (Ni-NTA, SEC on Superdex 75)
For the molecule B8, in assay [1], the Kd was determined as 2.01 nM and the dH was -9.06 kcal/mol. The “stoichiometry N” value in assay [2] turned out to be 1.

B9: Nb3.93 (VHH)
VHH: QVQLQESGGGLVQPGGSLRLSCAASGSTLARYHIGWFRQAPGKEREGVACISSSGDSTNYADSVKGRFTISRDNANNTVYLQMNSLKPEDTAVYYCVADPLKCILRRGGENRYLEHWGQGTQVTVSS
notes: as for B8
Regarding B9, in assay [1], the Kd was 5.96 nM and the dH was -22.1 kcal/mol. The “stoichiometry N” value in assay [2] was 1.

B10: Nb2.29 (VHH)
VHH: QVQLQESGGGLVQAGGSLRLSCVASGIIDNINTFGWYRQAPGKQRELVANISRWGNTNYADSSRDGFFISSEDANTTMYLLMMNLKPDDDAVYYCRAEIIGYDNGAHDYWGRGTRITVSS
notes: as for B3
For B10, in assay [1], the dissociation constant (Kd) came to 1.18 nM and the dH is -15.5 kcal/mol. In addition, in assay [2], the “stoichiometry N” value worked out at 1.

B11: Nb2.41 (VHH)
VHH: QVQLQESGGGLVQAGGSLRLSCASSGRTFDAWAMGWFRQAPGKEREVVATISWNGDRTYYGDSVKGRFTISRDNAKSTVALQMNNLKPEDTGVYYCAQMEGTYYSGRPSYWGQGTQVTVSS
notes: as for B3
For B11, in assay [1], the Kd is 1.37 nM and the dH was -20 kcal/mol. Besides, the “stoichiometry N” value in assay [2] was 1.

B12: Nb2.37 (VHH)
VHH: QVQLQESGGGLVQPGGSLRLSCVVSRRTFDAWAMGWFRQAPGQERDFVASVNWSGDSTYYADSVKGRFTISRDNAKNTVYLQMNSLKPEDTAVYYCAALAGSYHSRTPLDDYWGQGTQVTVSS
notes: as for B3
Take B12: in assay [1], the Kd was found to be 3.91 nM and the dH was -14.1 kcal/mol. Besides, in assay [2], the “stoichiometry N” value was determined as 1.

B13: Nb2.59 (VHH)
VHH: QVQLQESGGGLVQAGGSLRLSCAFSGRTDDAQYAMGWFRQAPGKERESVGTINWSGDRTNYADSVKGRFTISRDNVKNMMYLQMNSLKPEDTAVYYCARIYGTYLSGSPGSWGQGTQVTVSS
On to B13, for which, in assay [3], the binding result is given as “binds”.

B14: Nb2.74 (VHH)
VHH: QVQLQESGGGLVQPGGSLRLSCGASGFTFNGYAMSWVRQAPGKGPEWVSGINTIGNTTYYADSVKGRFTISRDNAQNTLYLQMNSLKPEDTALYYCARKPFGSTWTEYDYRGQGTQVTVSS
Turning to B14, the binding result in assay [3] is on record as “binds”.

B15: Nb3.88 (VHH)
VHH: B14 VHH with G23A, F27L, N56T, Q76K, T106S
Consider B15, for which the binding result in assay [3] was “binds”.

B16: Nb3.17 (VHH)
VHH: QVQLQESGGGLVQAGDSLRLSCAASGGSFDMFAMGWFRQAPGKERERVATISWSGDRTVYADSVKGRFTISRDNTKKMLYLQMNNLKPEDTAVYYCAQIEGTHYSGSPSDHWGQGTQVTVSS
notes: as for B8
Take B16: in assay [1], the equilibrium dissociation constant (Kd) was 0.66 nM and the dH is -20.3 kcal/mol. For the same molecule, the “stoichiometry N” value in assay [2] turned out to be 1.

B17: Nb2.14 (VHH)
VHH: QVQLQESGGGFVQTGGSLRLSCERSGTTFDSFAMGWFRQSPGKEREKVATINWSGESTSYTDSVKGRFTISRDNAKNTVYLQMNNLQPEDTAIYYCAQIAGTHYSGTPQYWGQGTQVTVSS
notes: as for B3
As for B17, in assay [1], the Kd amounted to 0.36 nM and the dH was -14.3 kcal/mol. In assay [2], the “stoichiometry N” value worked out at 1.

B18: Nb3.40 (VHH)
VHH: B17 VHH with H103Y
notes: as for B8
Take B18: in assay [1], the dissociation constant (Kd) was found to be 2.58 nM and the dH is -13.6 kcal/mol. For the same molecule, in assay [2], the “stoichiometry N” value was 1.

B19: Nb3.63 (VHH)
VHH: QVQLQESGGGLVQVGGSLRLSCAASGRTFGTFPMGWFRQAPGKEREFVAAISWSGTGTYYANSVKGRFTISRDNARNTVYLQMNNLKPEDTAVYSCAGRNTGRYSTTVYVEESDYGYWGQGTQVTVSS
notes: as for B8
Take B19: in assay [1], the Kd turned out to be 3.37 nM and the dH is -18.8 kcal/mol. Further, the “stoichiometry N” value in assay [2] came to 1.

B20: Nb3.4 (VHH)
VHH: QVQLQESGGGLVQPGGSLRLSCAASGFTFSSAAMNWVRQAPGKGPEWVSGINSSGTTTKYADSVKGRFTISRDNAKNTLYLQMNSLKPEDTAIYYCARKPLWSVGYDYWGQGTQVTVSS
notes: as for B8
With B20, in assay [1], the dissociation constant (Kd) was 3.94 nM and the dH was -8.4 kcal/mol. For the same molecule, in assay [2], the “stoichiometry N” value is 1.

B21: Nb2.50 (VHH)
VHH: QVQLQESGGGLVQAGGSLRLSCVSSGRTFDAWAMGWLRQAPGKERESVATISWSGDRTQYADSVKGRFTISRDNAKNTLFLQMNNLRPEDTAIYYCALMEGTHYSGRPGTWGRGTQVTVSS
As for B21, the binding result in assay [3] is recorded as “binds”.

B22: Nb3.61 (VHH)
VHH: QVQLQESGGGLVQPGGSLRLSCAASGFSFSSYAMTWVRQAPGKGPERVSIINPSGRTTNYADSVKGRFTISRDNAKNTLYLQMNSLKPEDTALYYCARKPPMAEEYDYRGQGTQVTVSS
As to B22, the binding result in assay [3] was “binds”.
